Data on 3 molecules can be found in patent publication EP4692118A1.

Assay [1] concerns the target ADAM9 on human tumour cells (LS174T, HepG2, Calu-3, Colo205) (human) (UniProt Q13443). Kind of assay: flow cytometry on HepG2 cells, 250 nM, negative control.
Assay [2] has the same target. Kind of assay: flow cytometry on LS174T cells, 250 nM, negative control.
For assay [3] the target is unchanged. Kind of assay: flow cytometry on HepG2 cells, 1000 nM, negative control.
Assay [4] has the same target. Kind of assay: flow cytometry on HepG2 cells, 62.5 nM, negative control.
Assay [5] has the same target. Description: flow cytometry on LS174T cells, 1000 nM, negative control.
For assay [6] the target is unchanged. Kind of assay: flow cytometry on LS174T cells, 62.5 nM, negative control.
The target is the same in assay [7]. Description: flow cytometry on HepG2 cells, 15.625 nM, negative control.
The target is the same in assay [8]. Kind of assay: flow cytometry on LS174T cells, 15.625 nM, negative control.
For assay [9] the target is unchanged. Kind of assay: flow cytometry on HepG2 cells, 0.000238 nM, negative control.
Assay [10] shares this target. Description: flow cytometry on HepG2 cells, 0.000954 nM, negative control.
Assay [11] shares this target. Description: flow cytometry on HepG2 cells, 0.003815 nM, negative control.
The target is the same in assay [12]. Description: flow cytometry on HepG2 cells, 0.015259 nM, negative control.
Assay [13] shares this target. Kind of assay: flow cytometry on HepG2 cells, 0.061035 nM, negative control.
For assay [14] the target is unchanged. Description: flow cytometry on HepG2 cells, 0.244141 nM, negative control.
Assay [15] has the same target. Kind of assay: flow cytometry on HepG2 cells, 0.976563 nM, negative control.
For assay [16] the target is unchanged. Description: flow cytometry on HepG2 cells, 3.906250 nM, negative control.
Assay [17] has the same target. Description: flow cytometry on LS174T cells, 0.000954 nM, negative control.
Assay [18] shares this target. Kind of assay: flow cytometry on LS174T cells, 0.003815 nM, negative control.
For assay [19] the target is unchanged. Description: flow cytometry on LS174T cells, 0.015259 nM, negative control.
Assay [20] shares this target. Kind of assay: flow cytometry on LS174T cells, 0.061035 nM, negative control.
For assay [21] the target is unchanged. Description: flow cytometry on LS174T cells, 0.244141 nM, negative control.
Assay [22] has the same target. Kind of assay: flow cytometry on LS174T cells, 0.976563 nM, negative control.
The target is the same in assay [23]. Kind of assay: flow cytometry on LS174T cells, 3.906250 nM, negative control.
Assay [24] shares this target. Description: cell-based or functional assay.
Assay [25] shares this target. Kind of assay: flow cytometry on LS174T cells, 250 nM.
For assay [26] the target is unchanged. Description: flow cytometry on LS174T cells, 1000 nM.
Assay [27] has the same target. Description: flow cytometry on LS174T cells, 62.5 nM.
For assay [28] the target is unchanged. Description: flow cytometry on LS174T cells, 15.625 nM.
The target is the same in assay [29]. Description: flow cytometry on LS174T cells, 0.000954 nM.
Assay [30] has the same target. Description: flow cytometry on LS174T cells, 0.003815 nM.
Assay [31] shares this target. Kind of assay: flow cytometry on LS174T cells, 0.015259 nM.
The target is the same in assay [32]. Description: flow cytometry on LS174T cells, 0.061035 nM.
The target is the same in assay [33]. Description: flow cytometry on LS174T cells, 0.244141 nM.
For assay [34] the target is unchanged. Kind of assay: flow cytometry on LS174T cells, 0.976563 nM.
Assay [35] has the same target. Description: flow cytometry on LS174T cells, 3.906250 nM.
Assay [36] shares this target. Kind of assay: flow cytometry on HepG2 cells, 250 nM.
Assay [37] shares this target. Description: flow cytometry on HepG2 cells, 1000 nM.
Assay [38] has the same target. Description: flow cytometry on HepG2 cells, 62.5 nM.
Assay [39] shares this target. Kind of assay: flow cytometry on HepG2 cells, 15.625 nM.
Assay [40] shares this target. Kind of assay: flow cytometry on HepG2 cells, 0.000238 nM.
For assay [41] the target is unchanged. Description: flow cytometry on HepG2 cells, 0.000954 nM.
The target is the same in assay [42]. Description: flow cytometry on HepG2 cells, 0.003815 nM.
Assay [43] shares this target. Description: flow cytometry on HepG2 cells, 0.015259 nM.
For assay [44] the target is unchanged. Kind of assay: flow cytometry on HepG2 cells, 0.061035 nM.
The target is the same in assay [45]. Description: flow cytometry on HepG2 cells, 0.244141 nM.
Assay [46] shares this target. Kind of assay: flow cytometry on HepG2 cells, 0.976563 nM.
Assay [47] shares this target. Description: flow cytometry on HepG2 cells, 3.906250 nM.

Sequence of ADAM9 on human tumour cells (LS174T, HepG2, Calu-3, Colo205) (human) (Q13443 29-819): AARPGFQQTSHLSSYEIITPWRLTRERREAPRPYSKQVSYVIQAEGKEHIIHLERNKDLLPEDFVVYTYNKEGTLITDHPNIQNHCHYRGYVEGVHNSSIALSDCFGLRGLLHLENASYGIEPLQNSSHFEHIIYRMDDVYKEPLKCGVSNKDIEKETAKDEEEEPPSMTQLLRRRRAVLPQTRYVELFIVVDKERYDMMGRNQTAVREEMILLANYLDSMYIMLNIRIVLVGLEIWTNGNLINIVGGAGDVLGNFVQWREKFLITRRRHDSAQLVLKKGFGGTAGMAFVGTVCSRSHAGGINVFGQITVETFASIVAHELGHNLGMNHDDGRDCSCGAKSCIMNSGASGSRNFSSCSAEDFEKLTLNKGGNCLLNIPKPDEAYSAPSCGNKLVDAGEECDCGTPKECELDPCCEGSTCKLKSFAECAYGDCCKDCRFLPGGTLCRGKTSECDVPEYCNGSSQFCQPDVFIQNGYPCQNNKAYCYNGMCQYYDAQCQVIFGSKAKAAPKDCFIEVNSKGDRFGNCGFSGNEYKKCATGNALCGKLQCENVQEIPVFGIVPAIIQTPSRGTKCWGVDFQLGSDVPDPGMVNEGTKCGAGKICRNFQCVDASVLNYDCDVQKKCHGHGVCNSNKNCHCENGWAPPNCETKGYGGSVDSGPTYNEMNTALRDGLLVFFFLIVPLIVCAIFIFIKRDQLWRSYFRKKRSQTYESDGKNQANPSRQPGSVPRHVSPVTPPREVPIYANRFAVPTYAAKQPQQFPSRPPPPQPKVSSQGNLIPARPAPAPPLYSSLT

Consider “anti-HIV human IgG antibody (iso-IgG1, produced by WuXi AppTec)”, for which the Mean fluorescence intensity (MFI) in assay [1] was 389; in assay [3], 690; in [4], 386; in assay [7], 364; in assay [9], 361; in assay [10] it was 365. For the same molecule, the Mean fluorescence intensity (MFI) in [11] turned out to be 349; in [12] it was 371; in assay [13], 377; in assay [14], 363; in assay [15], 360; in assay [16], 361. Also, the Mean fluorescence intensity in [2] stood at 269; in [5], 368; in [6] it was 229; in [8] it was 209; in assay [17], 220; in [18], 254. In addition, the Mean fluorescence intensity worked out at 213 in assay [19]; 202 in [20]; 208 in assay [21]; 212 in assay [22]; 203 in assay [23].

B1: antibody-drug conjugate Ab16-X2 (antibody, human IgG1, kappa, V domains shown)
VH: QVQLQQPGTEVVKPGASVKLSCKASGFTFPLYWMHWVRQRPGRGLEWIGRIIPIFGHTKYNEKFKNKATLTADESSSTAYMELRSLTSDDSAVYYCARGGYYYYPREGFLDYWGQGTSVTVSS
VL: DIVMTQSPASLSVSPGERASISCRSSQSVDYSGDSYMNWYQQKPGQSPRLLIYAASDRESGVPDRFSGSGSGTDFTLKISRVEEEDAGTYYCQQSREDPFTFGQGTKVDIKR
modifications: linker-payload X2 (camptothecin type) conjugated after reduction with tris(2-carboxyethyl)phosphine; DAR p = 7.9; sites not given
For the molecule B1, the IC50 (nM) of proliferation inhibition, Calu-3 cells, CellTiter-Glo, 6 days in assay [24] is 3.83 nM. Also, in assay [24], the IC50 (nM) of proliferation inhibition, Colo205 cells, CellTiter-Glo, 6 days turned out to be 29.8 nM. The same molecule registered an IC50 (nM) of proliferation inhibition, LS174T cells, CellTiter-Glo, 6 days in [24] of 8.97 nM. For the same molecule, the Mean fluorescence intensity came out at 2130 in assay [25]; 1130 in assay [26]; 2160 in assay [27]; 2400 in [28]; 223 in assay [29]; 219 in [30]. Besides, the Mean fluorescence intensity in assay [31] came out at 268; in [32], 447; in assay [33] it was 954; in [34] it was 1960; in assay [35], 2380.

B2: antibody-drug conjugate Ab16-X1 (antibody, human IgG1, kappa, V domains shown)
VH: QVQLQQPGTEVVKPGASVKLSCKASGFTFPLYWMHWVRQRPGRGLEWIGRIIPIFGHTKYNEKFKNKATLTADESSSTAYMELRSLTSDDSAVYYCARGGYYYYPREGFLDYWGQGTSVTVSS
VL: DIVMTQSPASLSVSPGERASISCRSSQSVDYSGDSYMNWYQQKPGQSPRLLIYAASDRESGVPDRFSGSGSGTDFTLKISRVEEEDAGTYYCQQSREDPFTFGQGTKVDIKR
modifications: linker-payload X1 (camptothecin type) conjugated after reduction with tris(2-carboxyethyl)phosphine; DAR p = 7.8; sites not given
In assay [24], B2 came in with an IC50 (nM) of proliferation inhibition, Calu-3 cells, CellTiter-Glo, 6 days of 8.6 nM. Besides, the Mean fluorescence intensity (MFI) in assay [36] is 16600; in assay [37], 17400; in assay [38] it was 3290; in assay [39] it was 2960; in assay [40], 370; in assay [41], 376. The Mean fluorescence intensity (MFI) in [42] turned out to be 396; in assay [43], 451; in assay [44], 623; in assay [45] it was 1090; in assay [46], 1790; in [47], 1780.
